From paper doi:10.1101/2022.10.11.511767, “A conserved and tunable mechanism for the temperature-controlled condensation of the translation factor Ded1p” (bioRxiv, 2022)

B1: C-terminal IDR of Sc Ded1p (residues 533-604) (domain or fragment, S. cerevisiae, UniProt P06634 533-604, looked up)
chain: MMSAPGSRSNSRRGGFGRNNNRDYRKAGGASAGGWGSSRSRDNSFRGGSGWGSDSKSSGWGNSGGSNNSSWW
notes: Ded1p (DEAD-box RNA helicase), S. cerevisiae, C-terminal intrinsically disordered region, residues 533-604; 15N isotope labelled (NMR visible) in the titrations; also called C-IDR; source: E. coli, purified (Ni-NTA, TEV cleavage, second Ni-NTA, size exclusion); not shown: His6, N-terminal, cleaved
B2: N-terminal IDR of Sc Ded1p (residues 1-81) (domain or fragment, S. cerevisiae, UniProt P06634 1-81, looked up)
chain: MAELSEQVQNLSINDNNENGYVPPHLRGKPRSARNNSSNYNNNNGGYNGGRGGGSFFSNNRRGGYGNGGFFGGNNGGSRSN
notes: Ded1p (DEAD-box RNA helicase), S. cerevisiae, N-terminal intrinsically disordered region, residues 1-81; 15N and/or 13C isotope labelled when it was the NMR-visible partner, grown in LB (unlabelled) when NMR invisible; also called N-terminal region; N-IDR; source: E. coli, purified (Ni-NTA, TEV cleavage, second Ni-NTA, size exclusion); not shown: His6, N-terminal, cleaved

Legend:
Details in all cases: both partners purified
[1] = molecular target: T1, helicase core region of Sc Ded1p (RecA1-RecA2, residues 82-535) (S. cerevisiae, UniProt P06634 82-535); experiment: NMR titration; 1H-15N spectra of the isotope-labelled C-terminal IDR; unlabelled helicase core, RecA1 or RecA2 added; visible condensation in the NMR tube; 20 mM HEPES pH 7.3, 125 mM NaCl, 1 mM DTT, 5% D2O
T1 construct: Ded1p (DEAD-box RNA helicase), S. cerevisiae, helicase core region (RecA1-RecA2), residues 82-535; Used unlabelled (NMR invisible); also called Sc helicase domain (RecA1-RecA2); helicase core domain; source: E. coli, purified (Ni-NTA, TEV cleavage, second Ni-NTA, size exclusion); not shown: His6, N-terminal, cleaved

[2] = molecular target: T2, RecA1 domain of Sc Ded1p (residues 82-369) (S. cerevisiae, UniProt P06634 82-369); experiment: as above
T2 construct: Ded1p (DEAD-box RNA helicase), S. cerevisiae, first RecA domain, residues 82-369; Used unlabelled (NMR invisible); also called first RecA domain; RecA1 subdomain; source: E. coli, purified (Ni-NTA, TEV cleavage, second Ni-NTA, size exclusion); not shown: His6, N-terminal, cleaved

[3] = molecular target: T1, helicase core region of Sc Ded1p …; experiment: NMR titration; 1H-15N spectra of the isotope-labelled N-terminal IDR; unlabelled helicase core, RecA1 or RecA2 added; 20 mM HEPES pH 7.3, 125 mM NaCl, 1 mM DTT, 5% D2O
[4] = molecular target: T3, RecA2 domain of Sc Ded1p (residues 369-535) (S. cerevisiae, UniProt P06634 369-535); experiment: as above
T3 construct: Ded1p (DEAD-box RNA helicase), S. cerevisiae, second RecA domain, residues 369-535; 15N and/or 13C isotope labelled when it was the NMR-visible partner, unlabelled when NMR invisible; also called second RecA domain; Rec2 subdomain; source: E. coli, purified (Ni-NTA, TEV cleavage, second Ni-NTA, size exclusion); not shown: His6, N-terminal, cleaved
T3 sequence (P06634 369-535): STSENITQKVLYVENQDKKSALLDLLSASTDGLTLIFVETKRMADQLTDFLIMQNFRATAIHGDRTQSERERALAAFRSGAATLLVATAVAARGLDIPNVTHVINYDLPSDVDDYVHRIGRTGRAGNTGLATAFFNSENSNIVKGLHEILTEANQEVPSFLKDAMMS

T1 sequence (P06634 82-535): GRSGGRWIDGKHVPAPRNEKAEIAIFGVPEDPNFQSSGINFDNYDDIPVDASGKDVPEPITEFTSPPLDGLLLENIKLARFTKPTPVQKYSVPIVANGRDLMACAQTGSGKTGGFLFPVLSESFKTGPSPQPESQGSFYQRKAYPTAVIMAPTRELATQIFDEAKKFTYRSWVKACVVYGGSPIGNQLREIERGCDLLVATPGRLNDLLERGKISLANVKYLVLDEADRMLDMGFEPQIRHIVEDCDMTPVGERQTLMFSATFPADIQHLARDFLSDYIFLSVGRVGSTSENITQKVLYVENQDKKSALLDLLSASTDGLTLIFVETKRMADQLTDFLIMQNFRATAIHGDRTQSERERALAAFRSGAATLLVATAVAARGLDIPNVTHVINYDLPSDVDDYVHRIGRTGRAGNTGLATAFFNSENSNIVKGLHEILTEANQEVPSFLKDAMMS
T2 sequence (P06634 82-369): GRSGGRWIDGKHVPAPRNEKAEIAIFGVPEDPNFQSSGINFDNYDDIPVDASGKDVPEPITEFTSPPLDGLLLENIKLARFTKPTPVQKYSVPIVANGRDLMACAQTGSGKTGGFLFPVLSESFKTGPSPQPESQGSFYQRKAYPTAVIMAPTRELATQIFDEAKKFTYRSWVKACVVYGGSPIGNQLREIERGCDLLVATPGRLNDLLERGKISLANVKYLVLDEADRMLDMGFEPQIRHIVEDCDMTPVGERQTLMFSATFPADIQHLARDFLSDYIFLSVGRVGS

Binder | binding result [1] | binding result [2] | binding result [3] | binding result [4]
B1 | binds | binds | – | –
B2 | – | – | binds | binds
